“Also recorded” adds a separate entry of the source.
Key:
T1 Arabidopsis = experiment: Glyphosate tolerance of transformed T1 Arabidopsis, postemergence spray, visual % injury; type: in vivo, Arabidopsis thaliana
Source text: Transgenic T1 Arabidopsis plants containing the dgt-28 transgene were sprayed with differing rates of glyphosate. Elevated rates were applied in this study to determine the relative levels of resistance (105, 420, 1,680 or 3,360 g ae/ha). A typical 1× field usage rate of glyphosate is 1120 g ae/ha. The T1 Arabidopsis plants that were used in this study were variable copy number for the dgt-28 transgene. The low copy dgt-28 T1 Arabidopsis plants were self-pollinated and used to produce T2 plants.
The Arabidopsis T1 transformants were first selected from the background of untransformed seed using a glufosinate selection scheme. Three flats or 30,000 seed were analyzed for each T1 construct. The T1 plants selected above were molecularly characterized and the high copy number plants were subsequently transplanted to individual pots and sprayed with various rates of commercial glyphosate as previously described. The response of these plants is presented in terms of % visual injury 2 weeks after treatment (WAT). […] An arithmetic mean and standard deviation is presented for each construct used for Arabidopsis transformation. The range in individual response is also indicated in the last column for each rate and transformation. Wild-type, non-transformed Arabidopsis (c.v. Columbia) served as a glyphosate sensitive control.
T1 plants were sampled and copy number analysis for the dgt-31, dgt-32, and dgt-33 v1 gene were completed. T1 plants were then assigned to various rates of glyphosate so that a range of copies were among each rate. For Arabidopsis, 26.25 g ae/ha glyphosate is an effective dose to distinguish sensitive plants from ones with meaningful levels of resistance. Elevated rates were applied to determine relative levels of resistance (105, 420, 1680, or 3360 g ae/ha).
All glyphosate herbicide applications were made by track sprayer in a 187 L/ha spray volume. Glyphosate used was of the commercial Durango dimethylamine salt formulation (480 g ae/L, Dow AgroSciences, LLC). […]

[1] = system: EPSP synthase (DGT enzymes); experiment: In vitro kinetic characterization of plant and bacterial DGT enzymes (Pi production, malachite green); type: biochemical; conditions: for Km: read-out: KM^PEP, Km for phosphoenolpyruvate; for decrease in catalytic efficiency: relative to DGT-28 v1
Procedure: Recombinant DGT proteins were overexpressed in Rosetta2™ (DE3) cells (Novagen™, Madison, Wis.) from the constructs described above. A single colony was used to inoculate 50 mL starter cultures of LB containing chloramphenicol (25 μg/mL) and kanamycin (50 μg/mL) which were cultivated overnight at 37° C. The overnight cultures were used to inoculate 1 L of LB containing chloramphenicol (25 μg/mL) and kanamycin (50 μg/mL). The cultures were grown at 37° C. to an O.D.600=0.6 then placed in an ice water bath for 10 minutes. Expression of the target proteins was achieved by addition of IPTG to a final concentration of 500 μM.
DGT enzymes were purified to homogeneity in one step via immobilized metal affinity chromatography (IMAC) using a 5 mL HisTrap FF crude column. The column was equilibrated in Buffer A and the sample was loaded in the same buffer. The column was then washed with 10 column volumes of Buffer A followed by elution in a 0-100% Buffer B (50 mM HEPES pH 7.5, 200 mM KCl, 2 mM DTT, 1 mM EDTA, 500 mM imidazole, and 5% glycerol) linear gradient over 25 column volumes. Fractions containing target protein, as judged by SDS-PAGE analysis, were concentrated to 2.5 mL using a Millipore ultracentrifugation device equipped with a 10 kDa molecular weight cut-off (MWCO). The purified DGT enzymes were buffer exchanged using PD-10 columns (GE Healthcare) into 50 mM HEPES pH 7.5, 150 mM KCl, 2 mM DTT, and 5% glycerol and subsequently concentrated ˜1 mL. Samples were typically diluted 1:50 and the UV-visible spectrum was recorded from 240-700 nm on a Cary50™ Bio UV-visible spectrophotometer. A theoretical extinction coefficient was then used to calculate the protein concentration based on the absorbance at 280 nm (ExPASy, Geneva, Switzerland).
Frozen pellets were resuspended in 20-30 mL buffer A (50 mM HEPES pH 7.5, 100 mM KCl, 1 mM EDTA, 5% glycerol, and 1 mM DTT) and 1 tablet of protease inhibitor (Roche Complete). Once the pellet was completely resolubilized 1 mg/mL of lysozyme was added and the sample was mixed at 4° C. for 15-20 minutes. Following the incubation with the lysozyme the sample was transferred to a 50 mL centrifuge tube and placed on ice. The sample was then sonicated for 1 minute intervals followed by 4 minutes of cooling. This step was repeated two more times for a total of three sonication cycles. Cell debris was removed by centrifugation at 16,500 rpm for 45 minutes and the supernatant was loaded into a 50 mL injection loop. The crude lysate was applied to an amylose column, washed for 7 column volumes with buffer A, and eluted in 100% buffer B (Buffer A and 10 mM maltose). Target protein was pooled and concentrated to 2.5 mL using a 30 kDa MWCO centricon. The purified protein was buffer exchanged into 50 mM HEPES pH 7.5, 100 mM KCl, and 5% glycerol using a PD-10 gel filtration column. Protein concentrations were determined via Bradford assay using BSA as a standard. The pure protein was frozen in liquid nitrogen and stored at −80° C.
The enzyme activities of wild-type (WT) and mutant DGTs were measured by inorganic phosphate (Pi) production in a modified procedure described by Lanzetta et al. (1979) Anal. Bioch. 100:95-7. Assays were performed in 96-well plate format in a total of 50 μL on a Spectra-Max 190 plate reader (Molecular Devices, Sunnyvale, Calif.). Typical assays contained 50 mM HEPES pH 7.5, 150 mM KCl, 2 mM DTT, and 1 mM S3P. […] Glyphosate was obtained from Sigma as the free acid and was resuspended in ddH2O. Glyphosate was solubilized by addition of KOH until the mixture was at a neutral pH. Assays were initiated by addition of the DGT enzyme at concentrations that varied between 0.01-1 μM. Reactions were terminated by the addition of 235 μL of a 3:1 mixture of malachite green: ammonium molybdate solution. After complete color development (˜1 minute), the absorbance change at 660 nm was recorded and the amount of Pi formed was calculated from a standard curve. […]

Row | Molecule | tolerance to glyphosate (T1 Arabidopsis) | tolerant to glyphosate at concentrations [1] [mM] | Km [1] [µM] | decrease in catalytic efficiency [1] [fold]
1 | DGT-31: Streptomyces Class IV EPSP synthase, GENBANK YP_004922608.1, SEQ ID NO:145 (protein, Streptomyces pratensis ATCC 33331) MTVIDIPGSKSVTARALFLAAAADGTTTLLRPLHSDDTEGFTEGLTRLGYAVVREPDRWHIEGRPSGPAAADAEVHCRDGATTARFLPTLAAAAASGTYRFDASAQMRRRPLAPLTEALRTLGVDLRHDGAEGHHPLTIQASGVKGGGLTLDAGESSQYLTALLMLGPLTAEGLRIEVTELVSAPYVEITLAMMRGFGVEVVREGNTFTVPPGGYRATTYAIEPDASTASYFFAAAALTGREVTVPGLGTGALQGDLRFTEVLRRMDADVRTTSDSTTVRSDGRLAGLTVNMRDISDTMPTLAAIAPYASSPVRIEDVANTRVKECDRLEACAQNLRSMGITVRTGPDWIEIHPGTPRPTEIATHGDHRIVMSFAVAGLRTPGMSYDDPGCVRKTFPRFHEEFAAFVERSSAGE | slight herbicide tolerance |  |  | 
2 | DGT-28v1: Class IV EPSP synthase from Streptomyces sviceus ATCC29083, SEQ ID NO:1, native (protein, listed as Streptomyces sviceus) MRGMPALSLPGSKSITARALFLAAAADGVTTLVRPLRSDDTEGFAEGLVRLGYRVGRTPDTWQVDGRPQGPAVAEADVYCRDGATTARFLPTLAAAGHGTYRFDASPQMRRRPLLPLSRALRDLGVDLRHEEAEGHHPLTVRAAGVEGGEVTLDAGQSSQYLTALLLLGPLTRQGLRIRVTDLVSAPYVEITLAMMRAFGVEVAREGDVFVVPPGGYRATTYAIEPDASTASYFFAAAALTPGAEVTVPGLGTGALQGDLGFVDVLRRMGAEVSVGADATTVRGTGELRGLTANMRDISDTMPTLAAIAPFASAPVRIEDVANTRVKECDRLEACAENLRRLGVRVATGPDWIEIHPGPATGAQVTSYGDHRIVMSFAVTGLRVPGISFDDPGCVRKTFPGFHEAFAELRRGIGS |  | > 80 | 91.6 | 
3 | DGT-32: Streptomyces Class IV EPSP synthase, GENBANK ZP_04696613, SEQ ID NO:68 (protein, Streptomyces roseosporus NRRL 15998) DRWRVQGRPAGPAATEADVYCRDGATTARFLPTLAAAAASGTYRFDASAQMRRRPLAPLTRALTALGVDLRH | significant tolerance; also recorded: robust tolerance |  | 140 | 100
4 | DGT-33: Streptomyces Class IV EPSP synthase, GENBANK NC_010572, SEQ ID NO:67 (protein, Streptomyces griseus subsp. griseus NBRC 13350) DRWRVEGRPDGPAAPDADVYCRDGATTARFLPTLVAAAASGTYRFDASAQMRRRPLAPLTRALTALGVDLRH | significant tolerance; also recorded: robust tolerance |  | 114 | 100

— US10577618B2, “Class of glyphosate resistance genes” (Dow AgroSciences LLC, priority 2012, dated 2020)
